Assay results from PMC9496920, “Anti-PTK7 Monoclonal Antibodies Inhibit Angiogenesis by Suppressing PTK7 Function” (Cancers, 2022).

Biological target: KDR-HA (human KDR with a C-terminal HA tag) (human, UniProt P35968 20-1356)
Test: cell-based or functional assay

Sequence of KDR-HA (human KDR with a C-terminal HA tag) (P35968 20-1356): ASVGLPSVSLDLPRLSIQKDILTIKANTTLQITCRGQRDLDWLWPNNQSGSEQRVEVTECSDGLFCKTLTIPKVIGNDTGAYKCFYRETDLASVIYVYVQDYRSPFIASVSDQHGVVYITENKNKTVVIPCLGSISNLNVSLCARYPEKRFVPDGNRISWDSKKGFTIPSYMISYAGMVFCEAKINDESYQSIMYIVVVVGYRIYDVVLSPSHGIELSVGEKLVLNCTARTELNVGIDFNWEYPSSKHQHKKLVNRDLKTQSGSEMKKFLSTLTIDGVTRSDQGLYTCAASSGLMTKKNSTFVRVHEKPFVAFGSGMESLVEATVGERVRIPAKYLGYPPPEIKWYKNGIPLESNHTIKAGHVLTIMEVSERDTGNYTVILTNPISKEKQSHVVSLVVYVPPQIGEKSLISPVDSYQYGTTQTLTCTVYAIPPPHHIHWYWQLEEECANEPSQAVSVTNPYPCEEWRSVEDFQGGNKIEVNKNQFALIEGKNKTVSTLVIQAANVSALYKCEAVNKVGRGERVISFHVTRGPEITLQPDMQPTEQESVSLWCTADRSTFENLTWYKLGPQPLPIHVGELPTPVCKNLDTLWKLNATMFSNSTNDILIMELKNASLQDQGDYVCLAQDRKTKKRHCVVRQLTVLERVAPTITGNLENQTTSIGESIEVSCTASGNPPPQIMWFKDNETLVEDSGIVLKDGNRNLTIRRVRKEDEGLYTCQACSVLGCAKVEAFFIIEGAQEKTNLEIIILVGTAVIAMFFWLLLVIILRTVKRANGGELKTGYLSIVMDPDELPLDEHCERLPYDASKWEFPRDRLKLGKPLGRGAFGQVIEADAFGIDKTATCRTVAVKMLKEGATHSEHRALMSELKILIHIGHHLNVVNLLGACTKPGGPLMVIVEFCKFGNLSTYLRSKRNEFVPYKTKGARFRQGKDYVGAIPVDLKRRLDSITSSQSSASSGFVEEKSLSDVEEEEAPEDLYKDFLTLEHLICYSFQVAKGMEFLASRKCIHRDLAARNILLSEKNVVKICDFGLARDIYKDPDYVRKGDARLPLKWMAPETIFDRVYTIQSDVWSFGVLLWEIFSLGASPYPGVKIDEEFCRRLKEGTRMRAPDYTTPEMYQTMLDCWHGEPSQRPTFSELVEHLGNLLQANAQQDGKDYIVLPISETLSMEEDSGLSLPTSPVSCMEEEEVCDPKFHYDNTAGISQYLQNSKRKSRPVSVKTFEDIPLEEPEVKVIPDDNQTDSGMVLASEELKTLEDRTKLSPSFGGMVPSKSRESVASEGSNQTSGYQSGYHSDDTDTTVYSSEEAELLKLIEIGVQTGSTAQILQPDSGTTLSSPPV

B1: PTK7-FLAG (human PTK7 with a C-terminal FLAG tag) (receptor, UniProt Q13308 31-1070, looked up)
chain: AIVFIKQPSSQDALQGRRALLRCEVEAPGPVHVYWLLDGAPVQDTERRFAQGSSLSFAAVDRLQDSGTFQCVARDDVTGEEARSANASFNIKWIEAGPVVLKHPASEAEIQPQTQVTLRCHIDGHPRPTYQWFRDGTPLSDGQSNHTVSSKERNLTLRPAGPEHSGLYSCCAHSAFGQACSSQNFTLSIADESFARVVLAPQDVVVARYEEAMFHCQFSAQPPPSLQWLFEDETPITNRSRPPHLRRATVFANGSLLLTQVRPRNAGIYRCIGQGQRGPPIILEATLHLAEIEDMPLFEPRVFTAGSEERVTCLPPKGLPEPSVWWEHAGVRLPTHGRVYQKGHELVLANIAESDAGVYTCHAANLAGQRRQDVNITVATVPSWLKKPQDSQLEEGKPGYLDCLTQATPKPTVVWYRNQMLISEDSRFEVFKNGTLRINSVEVYDGTWYRCMSSTPAGSIEAQARVQVLEKLKFTPPPQPQQCMEFDKEATVPCSATGREKPTIKWERADGSSLPEWVTDNAGTLHFARVTRDDAGNYTCIASNGPQGQIRAHVQLTVAVFITFKVEPERTTVYQGHTALLQCEAQGDPKPLIQWKGKDRILDPTKLGPRMHIFQNGSLVIHDVAPEDSGRYTCIAGNSCNIKHTEAPLYVVDKPVPEESEGPGSPPPYKMIQTIGLSVGAAVAYIIAVLGLMFYCKKRCKAKRLQKQPEGEEPEMECLNGGPLQNGQPSAEIQEEVALTSLGSGPAATNKRHSTSDKMHFPRSSLQPITTLGKSEFGEVFLAKAQGLEEGVAETLVLVKSLQSKDEQQQLDFRRELEMFGKLNHANVVRLLGLCREAEPHYMVLEYVDLGDLKQFLRISKSKDEKLKSQPLSTKQKVALCTQVALGMEHLSNNRFVHKDLAARNCLVSAQRQVKVSALGLSKDVYNSEYYHFRQAWVPLRWMSPEAILEGDFSTKSDVWAFGVLMWEVFTHGEMPHGGQADDEVLADLQAGKARLPQPEGCPSKLYRLMQRCWALSPKDRPSFSEIASALGDSTVDSKP
  VEGF-induced phosphorylation of KDR (Tyr1175) in HUVECs pre-treated with mAb-32 (10 ug/mL), Western blot, relative to VEGF alone: 53.2 % of VEGF-alone control
  VEGF-induced phosphorylation of KDR (Tyr1175) in HUVECs pre-treated with mAb-43 (10 ug/mL), Western blot, relative to VEGF alone: 56.9 % of VEGF-alone control
